Test results taken from publication doi:10.1101/589580.

Each substance was assayed against full-length ZO1 with C-terminal mEGFP (UniProt Q07157) (assay: client partitioning into phase-separated droplets).
full-length ZO1 with C-terminal mEGFP, sequence (Q07157 whole entry, the tested form may be a part): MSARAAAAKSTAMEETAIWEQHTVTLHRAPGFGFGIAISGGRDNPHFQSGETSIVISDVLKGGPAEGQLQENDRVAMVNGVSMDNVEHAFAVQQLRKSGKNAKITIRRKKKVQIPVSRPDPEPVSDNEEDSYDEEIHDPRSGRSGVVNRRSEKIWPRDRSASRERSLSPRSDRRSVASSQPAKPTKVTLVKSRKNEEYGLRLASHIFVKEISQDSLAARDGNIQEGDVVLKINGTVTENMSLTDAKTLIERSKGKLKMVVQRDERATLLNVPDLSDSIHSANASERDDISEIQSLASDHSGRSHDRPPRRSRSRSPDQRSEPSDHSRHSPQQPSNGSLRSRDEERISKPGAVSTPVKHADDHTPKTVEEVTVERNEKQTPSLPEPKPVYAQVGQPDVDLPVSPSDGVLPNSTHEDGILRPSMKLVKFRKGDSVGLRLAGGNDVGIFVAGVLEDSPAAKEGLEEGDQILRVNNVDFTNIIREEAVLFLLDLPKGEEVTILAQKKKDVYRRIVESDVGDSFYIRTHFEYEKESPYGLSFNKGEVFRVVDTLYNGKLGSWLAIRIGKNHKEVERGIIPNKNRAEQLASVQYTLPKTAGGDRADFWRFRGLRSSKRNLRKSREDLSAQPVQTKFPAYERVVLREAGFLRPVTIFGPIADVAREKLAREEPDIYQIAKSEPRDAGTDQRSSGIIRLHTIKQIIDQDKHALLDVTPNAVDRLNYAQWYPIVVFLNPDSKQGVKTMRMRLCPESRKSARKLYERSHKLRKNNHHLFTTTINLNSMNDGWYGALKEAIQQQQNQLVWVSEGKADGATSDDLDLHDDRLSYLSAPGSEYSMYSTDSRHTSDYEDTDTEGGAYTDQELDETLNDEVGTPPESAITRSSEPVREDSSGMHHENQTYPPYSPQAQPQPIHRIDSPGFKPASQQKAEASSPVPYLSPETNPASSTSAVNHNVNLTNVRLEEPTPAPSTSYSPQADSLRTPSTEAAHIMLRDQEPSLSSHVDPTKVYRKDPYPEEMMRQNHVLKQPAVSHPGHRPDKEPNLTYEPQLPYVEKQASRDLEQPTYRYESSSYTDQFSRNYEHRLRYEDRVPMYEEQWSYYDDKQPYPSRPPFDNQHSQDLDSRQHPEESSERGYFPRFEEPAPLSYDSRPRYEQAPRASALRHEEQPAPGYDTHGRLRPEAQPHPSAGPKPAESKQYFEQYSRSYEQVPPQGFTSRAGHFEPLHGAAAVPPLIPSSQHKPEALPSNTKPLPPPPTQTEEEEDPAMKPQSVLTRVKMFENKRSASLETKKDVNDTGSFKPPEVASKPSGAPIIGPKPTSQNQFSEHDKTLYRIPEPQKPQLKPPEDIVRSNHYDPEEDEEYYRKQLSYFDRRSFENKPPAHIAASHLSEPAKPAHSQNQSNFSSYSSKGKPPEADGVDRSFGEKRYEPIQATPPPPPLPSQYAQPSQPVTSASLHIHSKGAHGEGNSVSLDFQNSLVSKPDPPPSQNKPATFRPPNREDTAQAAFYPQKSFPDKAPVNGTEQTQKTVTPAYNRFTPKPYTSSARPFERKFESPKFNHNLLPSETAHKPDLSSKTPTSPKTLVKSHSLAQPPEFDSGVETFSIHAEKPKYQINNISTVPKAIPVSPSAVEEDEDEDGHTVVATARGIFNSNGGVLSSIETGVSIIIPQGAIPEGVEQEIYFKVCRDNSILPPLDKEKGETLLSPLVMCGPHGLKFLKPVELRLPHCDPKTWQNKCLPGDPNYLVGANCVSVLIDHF
“C-terminal domain of occludin (from UniProt Q16625 1-522) (domain or fragment)” showed a partitioning (client fluorescence inside/outside ZO1 droplets) of 21 fold. “C-terminal domain of nectin-1 (from UniProt Q15223 31-517) (domain or fragment)” gave a partitioning (client fluorescence inside/outside ZO1 droplets) of 9 fold. Work on “monomeric actin (from UniProt P60709 1-375) (natural protein)” yielded a partitioning (client fluorescence inside/outside ZO1 droplets) of 22 fold.
